According to patent US20080058263A1 (published 2008):

T1: VEGFR-3-Fc (UniProt P35916 25-328)
T1 construct: domain: first three Ig domains; conditioned supernatant of 293T cells; also called VEGFR-3-Fc fusion protein; not shown: Fc fragment of the pIg vector
T1 sequence (looked up): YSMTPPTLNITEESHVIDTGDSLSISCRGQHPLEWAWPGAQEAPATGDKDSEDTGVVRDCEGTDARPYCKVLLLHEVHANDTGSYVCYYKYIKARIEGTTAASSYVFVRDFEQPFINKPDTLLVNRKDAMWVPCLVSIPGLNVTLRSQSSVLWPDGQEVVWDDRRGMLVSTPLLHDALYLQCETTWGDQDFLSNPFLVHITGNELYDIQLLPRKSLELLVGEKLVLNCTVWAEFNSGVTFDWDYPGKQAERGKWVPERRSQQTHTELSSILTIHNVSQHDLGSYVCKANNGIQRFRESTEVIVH


Assays:
Experiment in all cases: receptor-Fc IP
VEGFR-1-Fc = target: T2, VEGFR-1-Fc (UniProt P17948 27-338)
T2 construct: domain: first three Ig domains; expressed in Drosophila S2 cells, purified on Protein A sepharose; also called VEGFR-1-Fc fusion protein; not shown: Fc fragment from the Signal-pIgPlus vector
Outline: (§1)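 fusion protein at 400 ng/ml in an IP mix (PBS, 1.5% BSA, 0.06% Tween 20, 3 μg/ml heparin) was combined with sample supernatant at a 1:2 ratio. Bound ligand captured by immunoprecipitation with pentahistidine antibody.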

VEGFR-2-Fc = target: T3, VEGFR-2-Fc (UniProt P35968 20-322)
T3 construct: domain: first 3 Ig domains; conditioned supernatant of 293T cells; also called VEGFR-2-Fc fusion protein; not shown: Fc fragment of the pIg vector
Outline: as §1

VEGFR-3-Fc = target: T1, VEGFR-3-Fc
Outline: as §1

T2 sequence (P17948 27-338): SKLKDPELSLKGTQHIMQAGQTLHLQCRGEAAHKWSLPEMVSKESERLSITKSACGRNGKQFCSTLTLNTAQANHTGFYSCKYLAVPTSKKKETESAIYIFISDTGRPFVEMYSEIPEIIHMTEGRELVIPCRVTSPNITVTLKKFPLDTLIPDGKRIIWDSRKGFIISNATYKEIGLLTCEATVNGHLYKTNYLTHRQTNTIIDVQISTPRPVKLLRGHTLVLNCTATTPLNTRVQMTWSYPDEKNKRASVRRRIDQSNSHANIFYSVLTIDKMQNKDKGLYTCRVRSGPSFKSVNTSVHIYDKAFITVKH
T3 sequence (P35968 20-322): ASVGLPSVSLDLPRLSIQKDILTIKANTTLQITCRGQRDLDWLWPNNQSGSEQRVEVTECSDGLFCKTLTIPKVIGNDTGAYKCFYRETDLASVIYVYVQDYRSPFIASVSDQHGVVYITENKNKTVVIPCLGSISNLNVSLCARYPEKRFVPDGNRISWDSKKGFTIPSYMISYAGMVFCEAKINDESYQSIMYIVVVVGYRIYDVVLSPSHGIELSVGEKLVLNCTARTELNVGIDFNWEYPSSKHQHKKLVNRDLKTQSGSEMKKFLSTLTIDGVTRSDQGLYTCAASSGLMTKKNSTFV

binding result (VEGFR-1-Fc) | binding result (VEGFR-2-Fc) | binding result (VEGFR-3-Fc) | Binder
no binding | no binding | no binding | 62-6 (ligand) GQNHHEVVKFMDVYQRSYCHPREVCIDVGKEFGVATNTFFKPPCVSVYRCGGCCNDEGLECMNTSTSYLSKTLFEIKPHQGQHIGEMSFANHTSCRCMSKLD
no binding | binds | no binding | 63-6 (ligand) GQNHHEVVKFMDVYQRSYCHPREVCIDVGKEYPDEIEYIFKPPCVSVYRCGGCCNDEGLECMNTSTSYLSKTLFEIKPHQGQHIGEMSFANHTSCRCMSKLD
no binding | no binding | no binding | 64-8 (ligand) GQNHHEVVKFMDVYQRSYCHPREVCIDVGKEFGVATNTFFKPSCVPLMRCGGCCNSEGLQCMNTSTSYLSKTLFEIKPHQGQHIGEMSFANHTSCRCMSKLD
no binding | binds | no binding | 62-8 (ligand) GQNHHEVVKFMDVYQRSYCHPREVCIDVGKEFGVATNTFFKPPCVSVYRCGGCCNSEGLQCMNTSTSYLSKTLFEIKPHQGQHIGEMSFANHTSCRCMSKLD
binds | binds | no binding | 63-1 (ligand) GQNHHEVVKFMDVYQRSYCHPREVCIDVGKEYPDEIEYIFKPPCVSVYRCGGCCNDEGLECVPTEESNITMQIMRIKPHQGQHIGEMSFLQHNKCECRPKKD
no binding | no binding | no binding | 61-13 (ligand) GQNHHEVVKFMDVYQRSYCHPREVCIDVGKEYPDEIEYIFKPSCVPLMRCGGCCNDEGLECVPTEESNITMQIMRITVPLSQGPKPVTISFANHTSCRCMSKLD
binds | no binding | no binding | 13-13 (ligand) GQNHHEVVKFMDVYQRSYCHPIETLVDIFQEYPDEIEYIFKPPCVSVYRCGGCCNDEGLECVPTEESNITMQIMRITVPLSQGPKPVTISFANHTSCRCMSKLD
no binding | no binding | no binding | 43-13 (ligand) AHYNTEILKFMDVYQRSYCHPREVCIDVGKEYPDEIEYIFKPPCVSVYRCGGCCNDEGLECVPTEESNITMQIMRITVPLSQGPKPVTISFANHTSCRCMSKLD
no binding | binds | no binding | 62-13 (ligand) GQNHHEVVKFMDVYQRSYCHPREVCIDVGKEFGVATNTFFKPPCVSVYRCGGCCNDEGLECVPTEESNITMQIMRITVPLSQGPKPVTISFANHTSCRCMSKLD
no binding | no binding | no binding | 63-9 (ligand) GQNHHEVVKFMDVYQRSYCHPREVCIDVGKEYPDEIEYIFKPPCVSVYRCGGCCNDEGLECVPTEESNITMQIMRITVPLSQGPKPVTISFLQHNKCECRPKKD
no binding | binds | binds | 62-11 (ligand) GQNHHEVVKFMDVYQRSYCHPREVCIDVGKEFGVATNTFFKPPCVSVYRCGGCCNSEGLQCVPTEESNITMQIMRITVPLSQGPKPVTISFLQHNKCECRPKKD
no binding | no binding | no binding | 71-11 (ligand) GQNHHEVVKSIDNEWRKTQCMPREVCIDVGKEYPDEIEYIFKPSCVPLMRCGGCCNSEGLQCVPTEESNITMQIMRITVPLSQGPKPVTISFLQHNKCECRPKKD
no binding | binds | no binding | 73-7 (ligand) GQNHHEVVKSIDNEWRKTQCMPREVCIDVGKEYPDEIEYIFKPPCVSVYRCGGCCNSEGLQCVPTEESNITMQIMRIKPHQGQHIGEMSFANHTSCRCMSKLD
no binding | no binding | no binding | 62-14 (ligand) GQNHHEVVKFMDVYQRSYCHPREVCIDVGKEFGVATNTFFKPPCVSVYRCGGCCNDEGLECMNTSTSYLSKTLFEITVPLSQGPKPVTISFANHTSCRCMSKLD
no binding | no binding | no binding | 64-14 (ligand) GQNHHEVVKFMDVYQRSYCHPREVCIDVGKEFGVATNTFFKPSCVPLMRCGGCCNDEGLECMNTSTSYLSKTLFEITVPLSQGPKPVTISFANHTSCRCMSKLD
no binding | no binding | no binding | 62-16 (ligand) GQNHHEVVKFMDVYQRSYCHPREVCIDVGKEFGVATNTFFKPPCVSVYRCGGCCNSEGLQCMNTSTSYLSKTLFEITVPLSQGPKPVTISFANHTSCRCMSKLD
no binding | no binding | no binding | 64-10 (ligand) GQNHHEVVKFMDVYQRSYCHPREVCIDVGKEFGVATNTFFKPSCVPLMRCGGCCNDEGLECMNTSTSYLSKTLFEITVPLSQGPKPVTISFLQHNKCECRPKKD
no binding | no binding | no binding | 63-16 (ligand) GQNHHEVVKFMDVYQRSYCHPREVCIDVGKEYPDEIEYIFKPPCVSVYRCGGCCNSEGLQCMNTSTSYLSKTLFEITVPLSQGPKPVTISFANHTSCRCMSKLD
no binding | no binding | no binding | 42-16 (ligand) AHYNTEILKFMDVYQRSYCHPREVCIDVGKEFGVATNTFFKPPCVSVYRCGGCCNSEGLQCMNTSTSYLSKTLFEITVPLSQGPKPVTISFANHTSCRCMSKLD
no binding | binds | no binding | 62-10 (ligand) GQNHHEVVKFMDVYQRSYCHPREVCIDVGKEFGVATNTFFKPPCVSVYRCGGCCNDEGLECMNTSTSYLSKTLFEITVPLSQGPKPVTISFLQHNKCECRPKKD
no binding | no binding | no binding | 62-12 (ligand) GQNHHEVVKFMDVYQRSYCHPREVCIDVGKEFGVATNTFFKPPCVSVYRCGGCCNSEGLQCMNTSTSYLSKTLFEITVPLSQGPKPVTISFLQHNKCECRPKKD
no binding | no binding | no binding | 64-16 (ligand) GQNHHEVVKFMDVYQRSYCHPREVCIDVGKEFGVATNTFFKPSCVPLMRCGGCCNSEGLQCMNTSTSYLSKTLFEITVPLSQGPKPVTISFANHTSCRCMSKLD
no binding | no binding | no binding | 42-14 (ligand) AHYNTEILKFMDVYQRSYCHPREVCIDVGKEFGVATNTFFKPPCVSVYRCGGCCNDEGLECMNTSTSYLSKTLFEITVPLSQGPKPVTISFANHTSCRCMSKLD
no binding | no binding | no binding | 63-14 (ligand) GQNHHEVVKFMDVYQRSYCHPREVCIDVGKEYPDEIEYIFKPPCVSVYRCGGCCNDEGLECMNTSTSYLSKTLFEITVPLSQGPKPVTISFANHTSCRCMSKLD
no binding | no binding | no binding | 44-14 (ligand) AHYNTEILKFMDVYQRSYCHPREVCIDVGKEFGVATNTFFKPSCVPLMRCGGCCNDEGLECMNTSTSYLSKTLFEITVPLSQGPKPVTISFANHTSCRCMSKLD
